Substrate: Nc1nc(=O)c2c([nH]1)NCC1CN(c3ccc(C(=O)N[C@@H](CCC(=O)O)C(=O)O)cc3)CN21
Assay: Michaelis-Menten constant (Km) against thymidylate synthase

B1: Thymidylate synthase (Lactobacillus casei), P00469 (protein)
chain: MLEQPYLDLAKKVLDEGHFKPDRTHTGTYSIFGHQMRFDLSKGFPLLTTKKVPFGLIKSELLWFLHGDTNIRFLLQHRNHIWDEWAFEKWVKSDEYHGPDMTDFGHRSQKDPEFAAVYHEEMAKFDDRVLHDDAFAAKYGDLGLVYGSQWRAWHTSKGDTIDQLGDVIEQIKTHPYSRRLIVSAWNPEDVPTMALPPCHTLYQFYVNDGKLSLQLYQRSADIFLGVPFNIASYALLTHLVAHECGLEVGEFIHTFGDAHLYVNHLDQIKEQLSRTPRPAPTLQLNPDKHDIFDFDMKDIKLLNYDPYPAIKAPVAV
Km: 14 µM

From ChEMBL document CHEMBL1148343, “Fragment-based drug discovery” (J Med Chem, 2004)
